Columns and labels:
Assay in all cases: cell-based or functional assay
[1] = target: wild-type TrkA, baculovirus-expressed, activated (autophosphorylated) (UniProt P04629)
[2] = target: TrkA Y490/785F (UniProt P04629)
[3] = target: TrkA Y490F (UniProt P04629)
[4] = target: TrkA Y785F (UniProt P04629)

Trk tyrosine dephosphorylation on co-expression in insect cells (anti-pTyr blot) [1]: 8 fold
dephosphorylation of Trk at Y674/Y675 (phospho-specific anti-Trk antibodies, co-expression in insect cells) [1]: 10 fold
Trk tyrosine dephosphorylation on co-expression in insect cells (anti-pTyr blot) [2]: 8 fold
Trk tyrosine dephosphorylation on co-expression in insect cells (anti-pTyr blot) [3]: 8 fold
Trk tyrosine dephosphorylation on co-expression in insect cells (anti-pTyr blot) [4]: 8 fold
Substance: SHP-1 (enzyme)

— patent publication US20020110800A1, “Use of SHP-1 and SHP-2 to detect compounds involved in neuronal survival” (McGill University, priority 1997, published 2002)
